Data taken from the supplement of paper PMC11865577.

Key:
Experiment in all cases: pull-down binding Z-score (relative to library population); higher = stronger binding
TO-N3 (biotin conjugate) = conditions: RNA library: Library-2
Method in brief: (§1)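 To score binding, a beads-only signal was subtracted, barcoded replicate probes were averaged with the highest and lowest dropped, and the value was converted to a Z-score using the library mean and standard deviation. The input was 1 μg of Cy5- or Cy3-end-labelled RNA library, heat-folded in phosphate/NaCl/KCl buffer and mixed for 60 min at 25 °C with streptavidin beads carrying 100 pmol of biotin-conjugated small molecule. Bound RNA was eluted in hot SDS and hybridised to a DNA barcode microarray at 55.5 °C for 20 h.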

[1] = system: TO-3-N3-2 (biotin conjugate); conditions: RNA library: Library-2
Method in brief: as §1

[2] = system: TO-3-N3 (biotin conjugate); conditions: RNA library: Library-2
Method in brief: as §1

[3] = system: G-clamp-N3 (biotin conjugate); conditions: RNA library: Library-1 (pre-miRNA loops + repeats)
Method in brief: as §1

[4] = system: TO-N3-2 (biotin conjugate); conditions: RNA library: Library-2
Method in brief: as §1

Sequence | pull-down binding Z-score (TO-N3 (biotin conjugate)) | pull-down binding Z-score [1] | pull-down binding Z-score [2] | pull-down binding Z-score [3] | pull-down binding Z-score [4]
AACGUUAUGUGUGGUCUUUAACCUGUU [hsa-mir-6755] | -0.139 | 0.16 | -0.152 | -1.32 | -0.171
AACUCCUGCGAGUCCCUGGAGUU [hsa-mir-1258] | -0.0874 | -0.146 | 0.16 | 0.214 | -0.163
AACUCUGUUGAAUAUAAAUUGGAAUU [hsa-mir-367] | -0.572 | 0.00577 | -0.404 | -0.214 | -0.424
AACUGUGCGGCCGGCCACACCGUCACACCGGGU [hsa-mir-8083] | 1.44 | 0.611 | 1.14 | -0.324 | 1.28
AAGACACUAUCUGACAACAACAGGGCUCUU [hsa-mir-550b-2] | 0.93 | 0.201 | 0.681 | 0.0423 | 0.234
AAGACACUAUCUUACAACAACAGGGCUCUU [hsa-mir-550b-1] | 1.01 | 0.281 | 1.17 | 0.13 | 0.298
AAGAGGAGGUGGUUGUUUUCCUCCUCUU [hsa-mir-627] | 0.944 | 0.625 | 0.432 | -0.0833 | 1.15
AAGAGGUAAGAAGAAGUGAAGCCCUCUU [hsa-mir-4778] | -0.292 | 0.35 | -0.393 | -0.836 | 0.281
AAGCAGGGUCGGGCCUGGUU [hsa-mir-7641-2] | 0.442 | 0.0218 | 0.415 | 0.553 | 0.499
AAGCAGGGUUGGGCCUGGUU [hsa-mir-7641-1] | -0.00685 | -0.112 | -0.192 | -1.23 | 0.549
AAGCCCUACGAGAAACUGGGGUUUCUGGA [hsa-mir-765] | 0.686 | 0.277 | 0.529 | -1.01 | 0.503
AAGCUCUUGCAGUAGGUUU [hsa-mir-1206] | -0.46 | -0.358 | -0.604 | 0.242 | -0.369
AAGCUGACAGACAGCUG [hsa-mir-5691] | 0.144 | -0.398 | -0.057 | 1.16 | 0.218
AAGCUGUGUGUGUCCAGC [hsa-mir-4732] | 0.33 | -0.101 | 0.132 | -0.258 | 0.52
AAGGCCAGGACCCGCUGACCCAU [hsa-mir-6872] | 0.411 | -0.0792 | 0.148 | -1.17 | 0.567
AAGGCCCUUGGGCACCCCAGGCCUU [hsa-mir-5700] | 0.181 | -0.081 | 0.259 | -1.26 | 0.656
AAGGCGGGUGGUGCUCAGAUCGCCU [hsa-mir-326] | 0.274 | 0.00254 | -0.0387 | 0.799 | 0.779
AAGGGUGUAUGAGAGAUCAACCCUU [hsa-mir-5697] | 1.07 | -0.0393 | 0.544 | 2.33 | 1.19

Sequence | pull-down binding Z-score (TO-N3 (biotin conjugate)) | pull-down binding Z-score [1] | pull-down binding Z-score [2] | pull-down binding Z-score [3] | pull-down binding Z-score [4]
AAGGUGGAGUUCUGGGUGCUGUUUUCCCACUCU [hsa-mir-378i] | 0.173 | 0.299 | 0.0547 | -0.335 | 0.429
AAGUAAUUGUUUCUAAUGUACU [hsa-mir-412] | 0.00941 | 0.0532 | -0.549 | 0.96 | 0.583
AAGUAGUUGGCGUCUUCAGAGACACUU [hsa-mir-643] | 0.531 | 0.0519 | 0.57 | -0.0629 | 0.0279
AAGUCCGGCUCCAGAACCUGGACACCGCUCAG [hsa-mir-4638] | 0.898 | 0.379 | 0.52 | -1.24 | 1.09
AAGUCGAUUUCCAAAAGUGACUU [hsa-mir-3124] | -1.11 | -0.588 | -0.856 | -0.161 | -1.11
AAGUGCCGUCCUCAUGAGCCCCU [hsa-mir-6769b] | 0.59 | 0.181 | 0.296 | -0.873 | 0.802
AAGUGGAGCAGGAAUGCGCUUUUCUCCACUG [hsa-mir-5187] | 0.567 | 0.27 | 0.299 | 1.93 | 0.231
AAGUUCCCUCUGGCUGGAAC [hsa-mir-1249] | 0.559 | -0.021 | 0.574 | -0.433 | 0.112
AAUAAAGUAUGUCCACAGCUGAAAGGACAUACUUUAUU [hsa-mir-4464] | -1.18 | -0.236 | -0.7 | -0.77 | -1.28
AAUCCCAGCACUUUGGGAG [hsa-mir-3929] | 0.0138 | -0.0338 | 0.0452 | 0.566 | 0.171
AAUCCCUCUCUUUCUAGUUCUUCCUAGAGUGAGGAAAA [hsa-mir-320b-1] | -0.325 | -0.166 | -0.294 | -1.69 | -0.55
AAUGACUCAUAGUCAA [hsa-mir-4475] | 0.374 | -0.157 | 0.512 | -0.88 | -0.666
AAUGCAGUCUGCACCCUGCUGCAUU [hsa-mir-6504] | 0.0527 | -0.145 | 0.237 | -0.398 | 0.0157
AAUGCAUAGAAAGCAUU [hsa-mir-4272] | -0.421 | 0.00602 | -0.177 | 1.58 | -0.629
AAUGCUGUGUUUCUGUAUGGUAUU [hsa-mir-92a-1] | 0.143 | -0.22 | 0.212 | -0.453 | -0.268
AAUGUCAGGGCCACCCCUGACCUU [hsa-mir-6837] | -0.481 | -0.382 | -0.431 | 0.482 | -0.497
AAUUGGCUUUUACAAAAGACCAACU [hsa-mir-4798] | 0.0359 | -0.259 | 0.117 | 0.914 | -0.6
AAUUUUCUCUUGUCUAAAAGAAAAGAACG [hsa-mir-521-2] | -0.996 | -0.0994 | -0.905 | -0.762 | -0.765
